Reference: patent US7148193B2, “Compounds that bind to growth hormone receptor” (Antyra, Inc., priority 1997, dated 2006)
Where a chain is given by its changes, count along the chain named.

What was measured:
[1] = target: T1, rat growth hormone receptor (Rattus norvegicus, UniProt P16310); test: Cell proliferation assay (WST-1) in FDC-1 cells stably transfected with rat growth hormone receptor; type: cell-based; conditions: cells with 0.003 μM bovine GH, 18 h, at the concentrations tested
T1 construct: expressed in transfected cells; host or cells: FDC-1 cells
T1 sequence (P16310 19-638): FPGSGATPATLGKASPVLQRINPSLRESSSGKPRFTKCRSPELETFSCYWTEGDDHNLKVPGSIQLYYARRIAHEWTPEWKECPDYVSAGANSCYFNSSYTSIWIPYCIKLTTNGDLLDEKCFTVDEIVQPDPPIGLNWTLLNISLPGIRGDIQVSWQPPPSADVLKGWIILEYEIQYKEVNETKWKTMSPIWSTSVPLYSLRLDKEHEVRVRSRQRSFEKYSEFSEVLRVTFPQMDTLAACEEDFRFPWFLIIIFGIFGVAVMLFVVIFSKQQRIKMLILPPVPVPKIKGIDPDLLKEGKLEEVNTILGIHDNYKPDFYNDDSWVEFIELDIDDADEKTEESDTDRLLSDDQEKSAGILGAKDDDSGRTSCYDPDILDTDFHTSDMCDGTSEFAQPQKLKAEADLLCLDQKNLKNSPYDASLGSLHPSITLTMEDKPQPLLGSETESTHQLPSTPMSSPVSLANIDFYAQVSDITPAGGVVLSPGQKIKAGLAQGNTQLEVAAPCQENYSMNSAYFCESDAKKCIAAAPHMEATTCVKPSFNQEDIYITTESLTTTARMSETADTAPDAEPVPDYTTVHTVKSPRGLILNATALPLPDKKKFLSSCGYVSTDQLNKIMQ
Experimental: Cells transfected with rat GHR (50,000 cells per well) were incubated with either bovine GH, H5 peptide (SEQ ID NO:8), 447 peptide (SEQ ID NO:11) or control peptide (SEQ ID NO:10) for 18 h at 37° C. Experiments were done in triplicate. Background signal A450=0.15. […] Cells transfected with rat GHR (50,000 cells per well) containing […] bovine GH were incubated with either control peptide (SEQ ID NO:10), H5 peptide (SEQ ID NO:8) or 447 peptide (SEQ ID NO:11) for 18 h at 37° C. Proliferation was measured using WST-1 reagent. The “*” symbol corresponds to the A450 measurement for the cells incubated without GH.
Agonistic and antagonistic activities of the two peptides, H5WT (SEQ ID NO:8) and bP#447 ([…]), were tested in FDC-1 cells stably transfected with the gene encoding the rat growth hormone receptor. The resulting cell line required either IL-3 or GH for growth. The cells were grown in RPMI 1640 medium containing 10% FCS (fetal calf serum) and 20 units of IL-3 per ml. […] activity assays were performed in a total volume of 100 μl in 96 well plates (flat bottom). Cells were seeded at 50,000 cells/well in 50 μl RPMI 1640 (without IL-3) medium containing horse serum instead of FCS to reduce background. To duplicate wells, 50 μl of either growth hormone or peptides at different concentrations was added, followed by incubation for 18 h in a CO2 incubator. Assays to measure the antagonistic activity were performed in a total volume of 100 μl in 96 well plates. Either H5WT peptide (SEQ ID NO:8), bP#447 peptide (SEQ ID NO:11), or control peptide (SEQ ID NO:10) was added to cells containing 0.003 μM of bovine GH and incubated at 37° C. for 18 h in a CO2 incubator. Proliferation assays were performed using WST-1 reagent. The WST-1 tetrazolium salt (light red color) is cleaved to formazan (dark red color) by the succinate-tetrazolium reductase system, which is active only in viable cells. […] Ten microliters of WST-1 reagent was added and the plates incubated for 1–4 h 37° C. Proliferation was measured by absorbance at 450 nm.

[2] = target: T2, ‘hu’ GHBP (humanized rat GHBP) (Rattus norvegicus, UniProt P16310, L61R); test: Phage ELISA binding and competition on 'hu' GHBP coated wells; conditions: ELISA signal; for ELISA Competition, ‘hu’GHBP, +BSA: BSA 1 μM; for ELISA Competition, ‘hu’GHBP, +hGH: huGH 1 μM as competitor; for ELISA Competition, ‘hu’GHBP, none: no competitor
T2 construct: 1–48 of GHBP; The 3′ oligo used for this reaction encoded the mutation L43R (CTG→AGA); The second PCR reaction amplified the DNA encoding amino acids 38–260; 6xHis; made in house
T2 sequence (P16310 19-278 isoform P16310-2 L61R): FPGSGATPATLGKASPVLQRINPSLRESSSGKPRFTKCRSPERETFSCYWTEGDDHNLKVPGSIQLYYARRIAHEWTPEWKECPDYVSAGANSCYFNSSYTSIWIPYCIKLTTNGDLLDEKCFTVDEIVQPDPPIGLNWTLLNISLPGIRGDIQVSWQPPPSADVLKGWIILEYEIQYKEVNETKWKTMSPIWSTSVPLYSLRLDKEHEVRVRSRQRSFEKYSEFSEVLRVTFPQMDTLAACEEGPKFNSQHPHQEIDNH
Experimental: For analysis of individual clones, colonies were picked and phage prepared as described above. Microtiter wells were coated and blocked as described above. Wells were coated with either rGHBP or a control IgG MAb. Phage resuspended in MPBS were added to duplicate wells (100 μl/well) and incubated at room temperature for 1 hr. The phage solution was then removed, and the wells were washed three times with PBS at room temperature. Anti-M13 antibody conjugated to horseradish peroxidase (Pharmacia Biotech) was diluted 1:3000 in MPBS and added to each well (100 μl/well). Incubation was for another hour at room temperature, followed by PBS washes as described. Color was developed by addition of ABTS solution (100 μl/well; Boehringer). Color development was stopped by adjusting each well to 0.5% SDS. Plates were analyzed at 405 nm using a SpectraMax 340 plate reader (Molecular Devices) and SoftMax Pro software. Data points were averaged after subtraction of appropriate blanks. A clone was considered “positive” if the A405 of the well was >2-fold over background.
Humanized GHBP (‘hu’ GHBP) contained the single amino acid change of rat GHBP amino acids L43 to R43, and was capable of binding human GH, as shown in FIG. 9. Direct immobilization of ‘hu’ GHBP was done as described earlier for panning of the secondary H5 library against rat GHBP and used inputs of ‘hu’ GHBP, prepared as described earlier of 100 μl per well of […] protein. Panning was performed with or without H10 peptide (SEQ ID NO:9; 30 μM) for 4 rounds, and 96 clones were picked.
(§1) Clones were tested for the presence of E-tag and binding to ‘hu’ GHBP, rGHBP, or BSA-coated wells. Those having specific GHBP binding (i.e., at least 2 fold greater binding to the GHBP than BSA) and with an E-tag positive signal were subjected to DNA sequencing. Three different clones were isolated and tested a second time against GHBP plus and minus GH (1 μM) or BSA (1 μM) coated wells as described. In these tests, huGH was used as competitor with ‘hu’ GHBP coated wells and bovineGH was used as a competitor with rat GHBP coated wells. […] The following open reading frame insertion including the DYKD (SEQ ID NO:79) amino terminal tag and up to the C-terminal E-tag was obtained for these clones; and is shown in Table III: […]

‘hu’ GHBP = target: T3, ‘hu’ GHBP (Rattus norvegicus, UniProt P16310, L61R); test: Species specificity of binding by ELISA and BIAcore, 'hu' GHBP; conditions: in words
T3 construct: 1–48 of GHBP; The 3′ oligo used for this reaction encoded the mutation L43R (CTG→AGA); The second PCR reaction amplified the DNA encoding amino acids 38–260; 6xHis; made in house
T3 sequence (P16310 19-278 isoform P16310-2 L61R): T2 sequence (P16310 19-278 isoform P16310-2 L61R)
Experimental: (§2) Wells were coated with either recombinant rGHBP or ‘hu’ GHBP (100 ng/well). Additions of H5 (SEQ ID NO:8) and H10 (SEQ ID NOS:9, 80, and 81) phage (10^10/well) and detection were made as described. […] Streptavidin chips were coated with H5 (SEQ ID NO:8) to 1100 RU as described and rGHBP or ‘hu’ GHBP (500 μg/ml) injected as 30 μl samples.
(§3) Growth hormone receptors from different species bind human GH as well as their own GH, however human GHR only binds human or monkey GH. […] The sequence of rGHBP was altered by PCR to create a “humanized” version (‘hu’ GHBP; FIG. 9A). Partially purified ‘hu’GHBP (FIG. 9B) was tested for binding using ELISA and BIAcore analysis. […] This was confirmed by BIAcore analysis (FIG. 10B).
(§4) The biotinylated control peptide (SEQ ID NO:10) was immobilized onto one flow cell of a SA-5 (streptavidin coated) sensor chip to a final density of 700 RU. On a second flow cell, either hGH (1100 RU final density), H5WT peptide (SEQ ID NO:8; 1100 RU final density), or bGH (730 RU final density) was immobilized. GHBP (either rat or humanized) was injected at a concentration of 500 μg/ml with a flow rate of 5 μl/min. Background binding to the control surface was subtracted prior to further analysis.

rGHBP [3] = target: T4, rGHBP (Rattus norvegicus, UniProt P16310); test: Species specificity of binding by ELISA and BIAcore, rGHBP; conditions: in words
T4 construct: 1–48 of GHBP; The 3′ oligo used for this reaction encoded the mutation L43R (CTG→AGA); The second PCR reaction amplified the DNA encoding amino acids 38–260; 6xHis; made in house
T4 sequence (P16310 19-278 isoform P16310-2): T2 sequence (P16310 19-278 isoform P16310-2 L61R) with R43L
Experimental: as §2, §3, §4

rGHBP [4] = target: T4, rGHBP; test: Phage ELISA binding and competition on rGHBP coated wells; conditions: for ELISA Competition, rGHBP, +BSA / ELISA Competition, rGHBP, +bGH / ELISA Competition, rGHBP, none: ELISA signal; for ELISA Competition, rGHBP, +BSA: BSA 1 μM; for ELISA Competition, rGHBP, none: no competitor; for clone binding blocked by GH: GH 1 μM, bovine GH on rat GHBP wells, huGH on ‘hu’ GHBP wells
Experimental: For analysis of individual clones, colonies were picked and phage prepared as described above. Microtiter wells were coated and blocked as described above. Wells were coated with either rGHBP or a control IgG MAb. Phage resuspended in MPBS were added to duplicate wells (100 μl/well) and incubated at room temperature for 1 hr. The phage solution was then removed, and the wells were washed three times with PBS at room temperature. Anti-M13 antibody conjugated to horseradish peroxidase (Pharmacia Biotech) was diluted 1:3000 in MPBS and added to each well (100 μl/well). Incubation was for another hour at room temperature, followed by PBS washes as described. Color was developed by addition of ABTS solution (100 μl/well; Boehringer). Color development was stopped by adjusting each well to 0.5% SDS. Plates were analyzed at 405 nm using a SpectraMax 340 plate reader (Molecular Devices) and SoftMax Pro software. Data points were averaged after subtraction of appropriate blanks. A clone was considered “positive” if the A405 of the well was >2-fold over background. […]
These clones were next analyzed for binding to the receptor's active sites (FIG. 2B). Competitions of phage binding were done both with the cognate ligand (i.e., GH) and with a specific target-neutralizing MAb 2C3 (Wang, B. S., et al. Mol. Cellular Endocrinology, vol. 116, p. 223–226, 1996).
as §1

| Substance | antagonistic activity [1] | ELISA Competition, ‘hu’GHBP, +BSA [2] | ELISA Competition, ‘hu’GHBP, +hGH [2] | ELISA Competition, ‘hu’GHBP, none [2] | binding to ‘hu’ GHBP (‘hu’ GHBP) | binding to rGHBP (rGHBP [3]) | ELISA Competition, rGHBP, +BSA (rGHBP [4]) | ELISA Competition, rGHBP, +bGH (rGHBP [4]; bovine GH 1 μM as competitor) | ELISA Competition, rGHBP, none (rGHBP [4]) | clone binding blocked by GH (rGHBP [4]) | binding to ‘hu’ GHBP (‘hu’ GHBP; listed as clone 13) | binding to rGHBP (rGHBP [3]; listed as clone 13) | ELISA Competition, rGHBP, +BSA (rGHBP [4]; phage concentrated 15×) | ELISA Competition, rGHBP, +bGH (rGHBP [4]; bovine GH 1 μM, phage concentrated 15×) | ELISA Competition, rGHBP, none (rGHBP [4]; phage concentrated 15×) | phage binding to rGHBP blocked by GH and MAb 2C3 (rGHBP [4]; competition ELISA of phage binding) |
| --- | --- | --- | --- | --- | --- | --- | --- | --- | --- | --- | --- | --- | --- | --- | --- | --- |
| Control peptide: SEQ ID NO:10, contains same amino acids as H5 in randomized order (DYKDWCLTLQPLVWASGGGYCA; control peptide) [reference compound] | no antagonistic activity |  |  |  |  |  |  |  |  |  |  |  |  |  |  |  |
| DYKDALLHRSRCVRWGKWVCCLPPVGVGGAQANQGMSVQRFRHC (phage displayed; clone hh peptide) |  | 0.37 | 0.35 | 0.37 | bind to both forms of GHBP | bind to both forms of GHBP | 0.53 | 0.52 | 0.55 | only clone 13 was blocked by GH |  |  |  |  |  |  |
| DYKDAQWWTTlGSNMFVLPGLRGCTFLPPMQCDREIRVFLVVVH (DYKDAQWWTTIGSNMFVLPGLRGCTFLPPMQCDREIRVFLVVVH; phage displayed; clone 13 peptide) [compound 13] |  |  |  |  | bind to both forms of GHBP | bind to both forms of GHBP |  |  |  | blocked by GH | bound to both human and rat forms of GHBP | bound to both human and rat forms of GHBP | 1.98 | 0.29 | 2.01 |  |
| H10: frame shifted phage clone without ORF, SEQ ID NOS:9, 80 and 81, binds rGHBP outside the active site (WLGCYFVAGVVACV; H10 peptide) |  | 0.29 | 0.28 | 0.30 | bound to rGHBP and ‘hu’ GHBP | bound to rGHBP | 0.52 | 0.48 | 0.52 |  |  |  |  |  |  | not blocked by either GH or MAb 2C3 |
